The values that follow come from patent US20260130997A1 (BEAM THERAPEUTICS, published 2026).

In the assay the target is T1, purified CD45 protein N267G (Homo sapiens, UniProt P08575 225-394, limits assumed).
T1 construct: Purified CD45 variant of the biosensor assay
T1 chain: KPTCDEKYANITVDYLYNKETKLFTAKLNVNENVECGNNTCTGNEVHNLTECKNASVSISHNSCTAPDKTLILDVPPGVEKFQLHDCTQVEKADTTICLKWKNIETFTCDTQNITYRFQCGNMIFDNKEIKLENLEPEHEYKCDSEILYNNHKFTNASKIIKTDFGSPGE
Put plainly: biosensor; 100 nM mAb030-9 captured with Anti-Human IgG Fc Capture (AHC), 300 nM purified CD45 protein. As for the experimental part: 300 nM of purified CD45 protein was contacted with the immobilized antibody. At 300 s the biosensor was placed in buffer without purified CD45 protein.

B1: mAb U139AGL030-9 (mAb030-9) (antibody, mouse IgG1, kappa, V domains shown)
VH: EVKLLESGGGLVQPGGSLKLSCAASGFDFSRYWMSWVRQAPGKGLEWIGEINPTSSTINFTPSLKDKVFISRDNAKNTLYLQMSKVRSEDTALYYCARGNYYRYGDAMDYWGQGTSVTVSS
VL: DIALTQSPASLAVSLGQRATISCRASKSVSTSGYSYLHWYQQKPGQPPKLLIYLASNLESGVPARFSGSGSGTDFTLNIHPVEEEDAATYYCQHSRELPFTFGSGTKLEIKR
notes: In the biosensor assay the antibody was captured with Anti-Human IgG Fc Capture (AHC); also called mAb30-9; mAb039-9
Molecule B1 yielded a response below 0.05 nm.
